Source: patent publication EP3919091A1

Molecular target: PIF6-SnoopCatcher (SnoopCatcher-mCherry-PIF6(A. thaliana, amino acids: 1-100, Cys9Ser, Cys10Ser)-His6), coupled to 8-arm PEG-SnoopTag (A. thaliana) (UniProt Q8L5W7)
Assay: cell-based or functional assay

Sequence of UniProt Q8L5W7 (Q8L5W7 other isoform, or with tags, fused parts or gaps C10S C10S): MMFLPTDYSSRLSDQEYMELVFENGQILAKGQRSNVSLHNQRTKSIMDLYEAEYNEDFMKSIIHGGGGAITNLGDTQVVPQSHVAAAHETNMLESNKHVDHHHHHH

Q: Which reversible cross-linking and dissolution cycles (small amplitude oscillatory shear rheology, 660 nm / 740 nm) does the source give for “PhyB-SpyCatcher (PhyB(A. thaliana, amino acids: 1-651)-SpyCatcher-His6), coupled to 8-arm PEG-SpyTag (from UniProt P14713 1-651)” here?
A: 5 times
